Starred links: 1 amine or outer side, 2 acyl side, 3 side chain; linkers in the order of their positions; H or OH if unused. Positions of bridges follow the written chain, without caps; N, C: chain ends. Primed or numbered codes have the meaning given here. *: point of attachment. C18 diacid′ = 17-carboxyheptadecanoyl on γGlu amine: (S)-4-carboxy-4-(17-carboxyheptadecanoylamino)butyryl; C20 diacid = O=C(O)CCCCCCCCCCCCCCCCCCC(=O)*; C18 diacid = O=C(O)CCCCCCCCCCCCCCCCC(=O)*; γGlu = O=C(O)[C@H](CCC(=O)[*:2])N[*:1]
T1: human calcitonin (a) receptor (human, UniProt P30988 25-474)
T1 sequence (looked up): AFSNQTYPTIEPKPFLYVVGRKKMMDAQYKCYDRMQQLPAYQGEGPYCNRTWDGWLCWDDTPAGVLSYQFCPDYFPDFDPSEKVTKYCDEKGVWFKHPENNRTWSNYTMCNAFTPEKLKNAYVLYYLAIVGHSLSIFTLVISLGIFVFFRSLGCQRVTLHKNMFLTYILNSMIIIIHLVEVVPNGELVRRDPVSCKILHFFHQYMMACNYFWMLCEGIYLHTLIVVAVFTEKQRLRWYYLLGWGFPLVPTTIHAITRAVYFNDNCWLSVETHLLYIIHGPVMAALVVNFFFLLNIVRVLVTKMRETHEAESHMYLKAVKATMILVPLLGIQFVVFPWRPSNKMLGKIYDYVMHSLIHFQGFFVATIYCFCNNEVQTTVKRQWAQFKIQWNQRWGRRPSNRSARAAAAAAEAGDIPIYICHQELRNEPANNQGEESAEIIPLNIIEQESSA

T2: rat amylin 3(a) receptor (rat calcitonin(a) receptor + rat RAMP3) (rat, UniProt P32214 25-516; Q9JJ73 23-147)
T2 sequence (looked up) 1: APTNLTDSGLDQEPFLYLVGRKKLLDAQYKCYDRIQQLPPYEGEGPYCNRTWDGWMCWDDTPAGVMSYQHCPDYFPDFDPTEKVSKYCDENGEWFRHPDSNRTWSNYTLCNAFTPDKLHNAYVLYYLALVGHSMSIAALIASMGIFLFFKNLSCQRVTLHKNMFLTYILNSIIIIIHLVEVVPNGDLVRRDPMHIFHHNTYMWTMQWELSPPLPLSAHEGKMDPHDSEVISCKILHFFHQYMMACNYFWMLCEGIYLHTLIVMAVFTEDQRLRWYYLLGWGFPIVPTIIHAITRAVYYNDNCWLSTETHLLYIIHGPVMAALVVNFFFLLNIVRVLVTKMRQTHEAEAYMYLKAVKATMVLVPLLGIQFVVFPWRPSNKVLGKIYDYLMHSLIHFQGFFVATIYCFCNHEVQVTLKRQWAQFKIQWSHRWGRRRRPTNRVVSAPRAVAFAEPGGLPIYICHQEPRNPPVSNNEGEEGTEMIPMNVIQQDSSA
T2 sequence (looked up) 2: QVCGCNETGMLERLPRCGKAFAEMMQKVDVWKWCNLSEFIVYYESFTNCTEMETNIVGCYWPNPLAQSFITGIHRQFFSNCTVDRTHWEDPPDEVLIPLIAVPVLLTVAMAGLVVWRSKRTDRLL

T3: rat calcitonin (a) receptor (rat, UniProt P32214 25-516)
T3 sequence (looked up): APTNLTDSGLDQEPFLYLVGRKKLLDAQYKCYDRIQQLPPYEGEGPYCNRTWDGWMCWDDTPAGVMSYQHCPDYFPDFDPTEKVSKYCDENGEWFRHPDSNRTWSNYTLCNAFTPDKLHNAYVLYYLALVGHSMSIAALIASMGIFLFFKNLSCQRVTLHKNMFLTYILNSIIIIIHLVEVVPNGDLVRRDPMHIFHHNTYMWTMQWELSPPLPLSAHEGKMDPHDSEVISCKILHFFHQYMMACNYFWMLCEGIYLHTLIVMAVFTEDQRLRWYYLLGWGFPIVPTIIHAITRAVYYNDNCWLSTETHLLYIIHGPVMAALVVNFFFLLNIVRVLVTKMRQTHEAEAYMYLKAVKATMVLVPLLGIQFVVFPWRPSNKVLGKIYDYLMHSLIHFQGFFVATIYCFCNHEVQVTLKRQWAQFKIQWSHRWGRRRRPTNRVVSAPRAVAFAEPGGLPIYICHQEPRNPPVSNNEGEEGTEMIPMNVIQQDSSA

T4: human amylin 3(a) receptor (human calcitonin receptor + RAMP-3) (human, UniProt P30988 25-474; O60896 24-148)
T4 sequence (looked up) 1: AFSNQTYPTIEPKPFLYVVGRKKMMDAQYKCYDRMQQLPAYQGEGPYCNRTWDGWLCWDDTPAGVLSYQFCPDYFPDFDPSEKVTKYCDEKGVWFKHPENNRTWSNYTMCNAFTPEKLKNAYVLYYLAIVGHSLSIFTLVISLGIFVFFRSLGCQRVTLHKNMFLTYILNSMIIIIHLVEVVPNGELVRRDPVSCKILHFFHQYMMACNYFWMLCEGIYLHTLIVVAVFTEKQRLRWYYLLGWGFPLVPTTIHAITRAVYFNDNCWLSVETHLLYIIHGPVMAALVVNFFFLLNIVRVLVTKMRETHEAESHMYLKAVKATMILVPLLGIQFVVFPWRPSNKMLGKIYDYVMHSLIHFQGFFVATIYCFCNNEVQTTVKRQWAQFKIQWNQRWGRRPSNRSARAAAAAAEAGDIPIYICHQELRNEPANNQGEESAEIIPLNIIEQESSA
T4 sequence (looked up) 2: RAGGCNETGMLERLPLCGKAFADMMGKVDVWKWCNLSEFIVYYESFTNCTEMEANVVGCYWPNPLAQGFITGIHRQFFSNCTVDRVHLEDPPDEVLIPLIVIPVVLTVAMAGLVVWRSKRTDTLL


Tests used:
Test in all cases: cell-based or functional assay
[1] = biological target: T1, human calcitonin (a) receptor
[2] = biological target: T2, rat amylin 3(a) receptor (rat …)
[3] = biological target: T3, rat calcitonin (a) receptor
[4] = biological target: T4, human amylin 3(a) receptor (human …)

Binder | CTa receptor human EC50 [1] [pM] | Amylin receptor rat EC50 [2] [pM] | CTa receptor rat EC50 [3] [pM] | Amylin receptor human EC50 [4] [pM]
{C20 diacid-γGlu}-KCNTATCATQRLAEFLRHSSNNFGAPLSSTNVGSHTY-NH2 (disulfide 2-7; SMILES CC(C)C[C@H](NC(=O)[C@H](CCCNC(=N)N)NC(=O)[C@H](CCC(N)=O)NC(=O)[C@@H](NC(=O)[C@H](C)NC(=O)[C@@H]1CSSC[C@H](NC(=O)[C@H](CCCCN)NC(=O)CC[C@H](NC(=O)CCCCCCCCCCCCCCCCCCC(=O)O)C(=O)O)C(=O)N[C@@H](CC(N)=O)C(=O)N[C@@H]([C@@H](C)O)C(=O)N[C@@H](C)C(=O)N[C@@H]([C@@H](C)O)C(=O)N1)[C@@H](C)O)C(=O)N[C@@H](C)C(=O)N[C@@H](CCC(=O)O)C(=O)N[C@@H](Cc1ccccc1)C(=O)N[C@@H](CC(C)C)C(=O)N[C@@H](CCCNC(=N)N)C(=O)N[C@@H](Cc1c[nH]cn1)C(=O)N[C@@H](CO)C(=O)N[C@@H](CO)C(=O)N[C@@H](CC(N)=O)C(=O)N[C@@H](CC(N)=O)C(=O)N[C@@H](Cc1ccccc1)C(=O)NCC(=O)N[C@@H](C)C(=O)N1CCC[C@H]1C(=O)N[C@@H](CC(C)C)C(=O)N[C@@H](CO)C(=O)N[C@@H](CO)C(=O)N[C@H](C(=O)N[C@@H](CC(N)=O)C(=O)N[C@H](C(=O)NCC(=O)N[C@@H](CO)C(=O)N[C@@H](Cc1c[nH]cn1)C(=O)N[C@H](C(=O)N[C@@H](Cc1ccc(O)cc1)C(N)=O)[C@@H](C)O)C(C)C)[C@@H](C)O) | 342 | 1330 | 5350 | 217
{C18 diacid-γGlu}-KCNTATCATQRLAEFLHHSSNNFGPILPPTNVGSHTY-NH2 (disulfide 2-7; not fully specified; printed as N-alpha-[(S)-4-Carboxy-4-(17-carboxyheptadecanoylamino)butyryl]-[Glu14,His17,His35]-pramlintide) [N-alpha-[(S)-4-Carboxy-4-(17-carboxyheptadecanoylamino)butyryl]-[Glu14,His17,His35]-pramlintide] | 60.5 | 23 | 148 | 56
{C20 diacid-γGlu}-EKCNTATCATQRLAEFLRHSSNNFGPILPPTNVGSHTY-NH2 (disulfide 3-8; SMILES CC[C@H](C)[C@H](NC(=O)[C@@H]1CCCN1C(=O)CNC(=O)[C@H](Cc1ccccc1)NC(=O)[C@H](CC(N)=O)NC(=O)[C@H](CC(N)=O)NC(=O)[C@H](CO)NC(=O)[C@H](CO)NC(=O)[C@H](Cc1c[nH]cn1)NC(=O)[C@H](CCCNC(=N)N)NC(=O)[C@H](CC(C)C)NC(=O)[C@H](Cc1ccccc1)NC(=O)[C@H](CCC(=O)O)NC(=O)[C@H](C)NC(=O)[C@H](CC(C)C)NC(=O)[C@H](CCCNC(=N)N)NC(=O)[C@H](CCC(N)=O)NC(=O)[C@@H](NC(=O)[C@H](C)NC(=O)[C@@H]1CSSC[C@H](NC(=O)[C@H](CCCCN)NC(=O)[C@H](CCC(=O)O)NC(=O)CC[C@H](NC(=O)CCCCCCCCCCCCCCCCCCC(=O)O)C(=O)O)C(=O)N[C@@H](CC(N)=O)C(=O)N[C@@H]([C@@H](C)O)C(=O)N[C@@H](C)C(=O)N[C@@H]([C@@H](C)O)C(=O)N1)[C@@H](C)O)C(=O)N[C@@H](CC(C)C)C(=O)N1CCC[C@H]1C(=O)N1CCC[C@H]1C(=O)N[C@H](C(=O)N[C@@H](CC(N)=O)C(=O)N[C@H](C(=O)NCC(=O)N[C@@H](CO)C(=O)N[C@@H](Cc1c[nH]cn1)C(=O)N[C@H](C(=O)N[C@@H](Cc1ccc(O)cc1)C(N)=O)[C@@H](C)O)C(C)C)[C@@H](C)O) [N-alpha-[(S)-4-Carboxy-4-(19-carboxynonadecanoylamino)butyryl]-Glu-[Glu14,Arg17,His35]-pramlintide] | 606 | 63 | 2230 | 116
{C18 diacid-γGlu}-KCNTATCATQRLAEFLRHSSNNFGPILPPTNVGSHTY-NH2 (disulfide 2-7; SMILES CC[C@H](C)[C@H](NC(=O)[C@@H]1CCCN1C(=O)CNC(=O)[C@H](Cc1ccccc1)NC(=O)[C@H](CC(N)=O)NC(=O)[C@H](CC(N)=O)NC(=O)[C@H](CO)NC(=O)[C@H](CO)NC(=O)[C@H](Cc1c[nH]cn1)NC(=O)[C@H](CCCNC(=N)N)NC(=O)[C@H](CC(C)C)NC(=O)[C@H](Cc1ccccc1)NC(=O)[C@H](CCC(=O)O)NC(=O)[C@H](C)NC(=O)[C@H](CC(C)C)NC(=O)[C@H](CCCNC(=N)N)NC(=O)[C@H](CCC(N)=O)NC(=O)[C@@H](NC(=O)[C@H](C)NC(=O)[C@@H]1CSSC[C@H](NC(=O)[C@H](CCCCN)NC(=O)CC[C@H](NC(=O)CCCCCCCCCCCCCCCCC(=O)O)C(=O)O)C(=O)N[C@@H](CC(N)=O)C(=O)N[C@@H]([C@@H](C)O)C(=O)N[C@@H](C)C(=O)N[C@@H]([C@@H](C)O)C(=O)N1)[C@@H](C)O)C(=O)N[C@@H](CC(C)C)C(=O)N1CCC[C@H]1C(=O)N1CCC[C@H]1C(=O)N[C@H](C(=O)N[C@@H](CC(N)=O)C(=O)N[C@H](C(=O)NCC(=O)N[C@@H](CO)C(=O)N[C@@H](Cc1c[nH]cn1)C(=O)N[C@H](C(=O)N[C@@H](Cc1ccc(O)cc1)C(N)=O)[C@@H](C)O)C(C)C)[C@@H](C)O) [N-alpha-[(S)-4-Carboxy-4-(17-carboxyheptadecanoylamino)butyryl]-[Glu14,Arg17,His35]-pramlintide] | 334 | 38 | 2360 | 67.5
{C20 diacid-γGlu}-KCNTATCATQRLAEFLRHSSNNFGPILPPTNVGSHTY-NH2 (disulfide 2-7; SMILES CC[C@H](C)[C@H](NC(=O)[C@@H]1CCCN1C(=O)CNC(=O)[C@H](Cc1ccccc1)NC(=O)[C@H](CC(N)=O)NC(=O)[C@H](CC(N)=O)NC(=O)[C@H](CO)NC(=O)[C@H](CO)NC(=O)[C@H](Cc1c[nH]cn1)NC(=O)[C@H](CCCNC(=N)N)NC(=O)[C@H](CC(C)C)NC(=O)[C@H](Cc1ccccc1)NC(=O)[C@H](CCC(=O)O)NC(=O)[C@H](C)NC(=O)[C@H](CC(C)C)NC(=O)[C@H](CCCNC(=N)N)NC(=O)[C@H](CCC(N)=O)NC(=O)[C@@H](NC(=O)[C@H](C)NC(=O)[C@@H]1CSSC[C@H](NC(=O)[C@H](CCCCN)NC(=O)CC[C@H](NC(=O)CCCCCCCCCCCCCCCCCCC(=O)O)C(=O)O)C(=O)N[C@@H](CC(N)=O)C(=O)N[C@@H]([C@@H](C)O)C(=O)N[C@@H](C)C(=O)N[C@@H]([C@@H](C)O)C(=O)N1)[C@@H](C)O)C(=O)N[C@@H](CC(C)C)C(=O)N1CCC[C@H]1C(=O)N1CCC[C@H]1C(=O)N[C@H](C(=O)N[C@@H](CC(N)=O)C(=O)N[C@H](C(=O)NCC(=O)N[C@@H](CO)C(=O)N[C@@H](Cc1c[nH]cn1)C(=O)N[C@H](C(=O)N[C@@H](Cc1ccc(O)cc1)C(N)=O)[C@@H](C)O)C(C)C)[C@@H](C)O) [N-alpha-[(S)-4-Carboxy-4-(19-carboxynonadecanoylamino)butyryl]-[Glu14,Arg17,His35]-pramlintide] | 387 | 510 | 2840 | 111
{C18 diacid′-γGlu}-EKCNTATCATQRLAEFLRHSSNNFGPILPPTNVGSHTY-NH2 (disulfide 3-8) [N-alpha-[(S)-4-Carboxy-4-(17-carboxyheptadecanoylamino)butyryl]-Glu-[Glu14,Arg17,His35]-pramlintide] | 1070 | 281 | 17600 | 172
